Measurements as given in IntAct's records for PubMed 16763556.

B1: DNA polymerase iota (Homo sapiens), Q9UNA4 (parent)
chain: MEKLGVEPEEEGGGDDDEEDAEAWAMELADVGAAASSQGVHDQVLPTPNASSRVIVHVDLDCFYAQVEMISNPELKDKPLGVQQKYLVVTCNYEARKLGVKKLMNVRDAKEKCPQLVLVNGEDLTRYREMSYKVTELLEEFSPVVERLGFDENFVDLTEMVEKRLQQLQSDELSAVTVSGHVYNNQSINLLDVLHIRLLVGSQIAAEMREAMYNQLGLTGCAGVASNKLLAKLVSGVFKPNQQTVLLPESCQHLIHSLNHIKEIPGIGYKTAKCLEALGINSVRDLQTFSPKILEKELGISVAQRIQKLSFGEDNSPVILSGPPQSFSEEDSFKKCSSEVEAKNKIEELLASLLNRVCQDGRKPHTVRLIIRRYSSEKHYGRESRQCPIPSHVIQKLGTGNYDVMTPMVDILMKLFRNMVNVKMPFHLTLLSVCFCNLKALNTAKKGLIDYYLMPSLSTTSRSGKHSFKMKDTHMEDFPKDKETNRDFLPSGRIESTRTRESPLDTTNFSKEKDINEFPLCSLPEGVDQEVFKQLPVDIQEEILSGKSREKFQGKGSVSCPLHASRGVLSFFSKKQMQDIPINPRDHLSSSKQVSSVSPCEPGTSGFNSSSSSYMSSQKDYSYYLDNRLKDERISQGPKEPQGFHFTNSNPAVSAFHSFPNLQSEQLFSRNHTTDSHKQTVATDSHEGLTENREPDSVDEKITFPSDIDPQVFYELPEAVQKELLAEWKRAGSDFHIGHK
B2: DNA polymerase eta (Homo sapiens), Q9Y253 (parent)
chain: MATGQDRVVALVDMDCFFVQVEQRQNPHLRNKPCAVVQYKSWKGGGIIAVSYEARAFGVTRSMWADDAKKLCPDLLLAQVRESRGKANLTKYREASVEVMEIMSRFAVIERASIDEAYVDLTSAVQERLQKLQGQPISADLLPSTYIEGLPQGPTTAEETVQKEGMRKQGLFQWLDSLQIDNLTSPDLQLTVGAVIVEEMRAAIERETGFQCSAGISHNKVLAKLACGLNKPNRQTLVSHGSVPQLFSQMPIRKIRSLGGKLGASVIEILGIEYMGELTQFTESQLQSHFGEKNGSWLYAMCRGIEHDPVKPRQLPKTIGCSKNFPGKTALATREQVQWWLLQLAQELEERLTKDRNDNDRVATQLVVSIRVQGDKRLSSLRRCCALTRYDAHKMSHDAFTVIKNCNTSGIQTEWSPPLTMLFLCATKFSASAPSSSTDITSFLSSDPSSLPKVPVTSSEAKTQGSGPAVTATKKATTSLESFFQKAAERQKVKEASLSSLTAPTQAPMSNSPSKPSLPFQTSQSTGTEPFFKQKSLLLKQKQLNNSSVSSPQQNPWSNCKALPNSLPTEYPGCVPVCEGVSKLEESSKATPAEMDLAHNSQSMHASSASKSVLEVTQKATPNPSLLAAEDQVPCEKCGSLVPVWDMPEHMDYHFALELQKSFLQPHSSNPQVVSAVSHQGKRNPKSPLACTNKRPRPEGMQTLESFFKPLTH

Variants of: B1
Details: with ubc_human UBC

Row | Variant | effect of a mutation on the interaction
1 | P717R | decreasing interaction strength

Variants of: B2
Details: with ubc_human UBC

Row | Variant | effect of a mutation on the interaction
2 | H654A | disrupting interaction
